Publication PMC3214075

T1: 14-3-3, P63104
T1 chain: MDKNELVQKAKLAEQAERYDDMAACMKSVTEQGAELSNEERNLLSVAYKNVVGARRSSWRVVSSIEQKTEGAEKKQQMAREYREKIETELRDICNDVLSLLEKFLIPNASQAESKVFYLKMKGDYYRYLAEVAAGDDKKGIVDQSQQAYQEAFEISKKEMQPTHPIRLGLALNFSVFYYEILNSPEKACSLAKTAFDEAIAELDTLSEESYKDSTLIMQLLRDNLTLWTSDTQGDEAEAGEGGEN


Target: T1, 14-3-3, P63104
Assay: GST pull-down, Western blot densitometry
Conditions: chain shown with the change; 293T cell extracts, glutathione beads; two blots quantified; parent: est. 1.5; read off a plot

Row | Binder | response (IB:14-3-3/total 14-3-3)
1 | GST-BAD wild type, full length (pEBG-BAD), Q61337 S111A (protein) MGTPKQPSLAPAHALGLRKSDPGIRSLGSDAGGRRWRPAAQSMFQIPEFEPSEQEDASATDRGLGPSLTEDQPGPYLAPGLLGSNIHQQGRAATNSHHGGAGAMETRSRHASYPAGTEEDEGMEEELSPFRGRSRSAPPNLWAAQRYGRELRRMSDEFEGSFKGLPRPKSAGTATQMRQSAGWTRIIQSWWDRNLGKGGSTPSQ | 1.7
2 | GST-BAD wild type, full length (pEBG-BAD), Q61337 S111A; S112A; S136A (protein) MGTPKQPSLAPAHALGLRKSDPGIRSLGSDAGGRRWRPAAQSMFQIPEFEPSEQEDASATDRGLGPSLTEDQPGPYLAPGLLGSNIHQQGRAATNSHHGGAGAMETRSRHAAYPAGTEEDEGMEEELSPFRGRSRAAPPNLWAAQRYGRELRRMSDEFEGSFKGLPRPKSAGTATQMRQSAGWTRIIQSWWDRNLGKGGSTPSQ | 0.22
3 | GST-BAD wild type, full length (pEBG-BAD), Q61337 S136A (protein) MGTPKQPSLAPAHALGLRKSDPGIRSLGSDAGGRRWRPAAQSMFQIPEFEPSEQEDASATDRGLGPSLTEDQPGPYLAPGLLGSNIHQQGRAATNSHHGGAGAMETRSRHSSYPAGTEEDEGMEEELSPFRGRSRAAPPNLWAAQRYGRELRRMSDEFEGSFKGLPRPKSAGTATQMRQSAGWTRIIQSWWDRNLGKGGSTPSQ | 0.17
4 | GST-BAD wild type, full length (pEBG-BAD), Q61337 S112A (protein) MGTPKQPSLAPAHALGLRKSDPGIRSLGSDAGGRRWRPAAQSMFQIPEFEPSEQEDASATDRGLGPSLTEDQPGPYLAPGLLGSNIHQQGRAATNSHHGGAGAMETRSRHSAYPAGTEEDEGMEEELSPFRGRSRSAPPNLWAAQRYGRELRRMSDEFEGSFKGLPRPKSAGTATQMRQSAGWTRIIQSWWDRNLGKGGSTPSQ | 1.8

Next, values leading:

Row | response (IB:14-3-3/total 14-3-3) | Binder
5 | 1.9 | GST-BAD wild type, full length (pEBG-BAD), Q61337 S111A; S112A (protein) MGTPKQPSLAPAHALGLRKSDPGIRSLGSDAGGRRWRPAAQSMFQIPEFEPSEQEDASATDRGLGPSLTEDQPGPYLAPGLLGSNIHQQGRAATNSHHGGAGAMETRSRHAAYPAGTEEDEGMEEELSPFRGRSRSAPPNLWAAQRYGRELRRMSDEFEGSFKGLPRPKSAGTATQMRQSAGWTRIIQSWWDRNLGKGGSTPSQ
6 | 0.19 | GST-BAD wild type, full length (pEBG-BAD), Q61337 S112A; S136A (protein) MGTPKQPSLAPAHALGLRKSDPGIRSLGSDAGGRRWRPAAQSMFQIPEFEPSEQEDASATDRGLGPSLTEDQPGPYLAPGLLGSNIHQQGRAATNSHHGGAGAMETRSRHSAYPAGTEEDEGMEEELSPFRGRSRAAPPNLWAAQRYGRELRRMSDEFEGSFKGLPRPKSAGTATQMRQSAGWTRIIQSWWDRNLGKGGSTPSQ
7 | 0.2 | GST-BAD wild type, full length (pEBG-BAD), Q61337 S111A; S136A (protein) MGTPKQPSLAPAHALGLRKSDPGIRSLGSDAGGRRWRPAAQSMFQIPEFEPSEQEDASATDRGLGPSLTEDQPGPYLAPGLLGSNIHQQGRAATNSHHGGAGAMETRSRHASYPAGTEEDEGMEEELSPFRGRSRAAPPNLWAAQRYGRELRRMSDEFEGSFKGLPRPKSAGTATQMRQSAGWTRIIQSWWDRNLGKGGSTPSQ
